{"source": "paper PMC9602519", "about": "“A Novel Cryptic Clostridial Peptide That Kills Bacteria by a Cell Membrane Permeabilization Mechanism” (Microbiology Spectrum, 2022)", "target": "the molecule itself", "assay": "AUC; sedimentation velocity, 50,000 rpm, 20°C, absorbance at 230 nm; 10 mM sodium bicarbonate, 5 mM sodium phosphate (pH 6.8), 100 mM NaCl; with 20 mM DPC detergent (membrane mimic); c(s) distribution in SEDFIT"}
{"protein": "KNLLRRIRRKLRNKFSRSDVIKTPKIVEVN (N-terminal region of the LysC autolysin of Clostridium intestinale URNW)", "note": "[Intestinalin (P30)]", "values": [{"measurement": "stoichiometry N", "result": 3}]}
